How the values were obtained:
Assay in all cases: GST pull-down, LC-MS/MS; score of protein identification
ATP synthase, O subunit = target: ATP synthase, O subunit
ATP synthase, β chain = target: ATP synthase, β chain
[1] = target: Electron transfer flavoprotein, α subunit
Chain of Electron transfer flavoprotein, α subunit (Q99LC5 20-333): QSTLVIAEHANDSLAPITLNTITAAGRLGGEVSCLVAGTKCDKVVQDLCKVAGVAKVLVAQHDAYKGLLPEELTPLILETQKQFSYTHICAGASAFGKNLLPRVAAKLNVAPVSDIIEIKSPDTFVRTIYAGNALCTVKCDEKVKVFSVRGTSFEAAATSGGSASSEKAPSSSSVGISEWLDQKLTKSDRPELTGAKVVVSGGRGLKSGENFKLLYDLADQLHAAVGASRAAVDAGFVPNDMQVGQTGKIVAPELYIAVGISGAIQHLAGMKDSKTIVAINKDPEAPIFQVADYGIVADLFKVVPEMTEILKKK

Chain of ATP synthase, β chain (P56480 47-529): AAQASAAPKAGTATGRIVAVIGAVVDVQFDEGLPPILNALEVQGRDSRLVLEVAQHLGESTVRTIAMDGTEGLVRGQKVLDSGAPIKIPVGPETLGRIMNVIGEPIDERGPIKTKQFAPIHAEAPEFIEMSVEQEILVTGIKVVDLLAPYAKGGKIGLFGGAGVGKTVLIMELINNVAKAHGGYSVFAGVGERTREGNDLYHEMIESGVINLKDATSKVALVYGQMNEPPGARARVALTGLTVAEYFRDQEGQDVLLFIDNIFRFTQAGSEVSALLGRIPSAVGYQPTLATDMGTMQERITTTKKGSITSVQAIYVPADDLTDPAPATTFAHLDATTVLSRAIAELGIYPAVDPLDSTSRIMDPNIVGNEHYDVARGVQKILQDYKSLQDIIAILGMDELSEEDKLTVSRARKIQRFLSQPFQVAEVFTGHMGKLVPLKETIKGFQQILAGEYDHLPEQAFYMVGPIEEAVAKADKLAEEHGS
Chain of ATP synthase, O subunit (Q9DB20 24-213): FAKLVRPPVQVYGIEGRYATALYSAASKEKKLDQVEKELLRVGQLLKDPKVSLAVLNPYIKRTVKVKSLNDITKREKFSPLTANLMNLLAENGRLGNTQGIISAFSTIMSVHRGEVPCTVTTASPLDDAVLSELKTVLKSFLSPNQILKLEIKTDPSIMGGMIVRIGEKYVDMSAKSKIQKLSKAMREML

For “GST-LRRC8A (fusion protein comprised of the leucine rich C-terminus of LRRC8A and GST)”, the Unused Score (ATP synthase, O subunit) was 8.44, the Unused Score (ATP synthase, β chain) was 5.94 and the Unused Score [1] was 11.6.
